Assay results as given in article doi:10.1101/2020.10.15.340570, “Coordination of RNA and protein condensation by the P granule protein MEG-3”.

Target: T1, MEG-3 HMGL- (Caenorhabditis elegans, UniProt Q9TXM1 1-862, F705A;Y708A;Y713A;N725A)
T1 sequence: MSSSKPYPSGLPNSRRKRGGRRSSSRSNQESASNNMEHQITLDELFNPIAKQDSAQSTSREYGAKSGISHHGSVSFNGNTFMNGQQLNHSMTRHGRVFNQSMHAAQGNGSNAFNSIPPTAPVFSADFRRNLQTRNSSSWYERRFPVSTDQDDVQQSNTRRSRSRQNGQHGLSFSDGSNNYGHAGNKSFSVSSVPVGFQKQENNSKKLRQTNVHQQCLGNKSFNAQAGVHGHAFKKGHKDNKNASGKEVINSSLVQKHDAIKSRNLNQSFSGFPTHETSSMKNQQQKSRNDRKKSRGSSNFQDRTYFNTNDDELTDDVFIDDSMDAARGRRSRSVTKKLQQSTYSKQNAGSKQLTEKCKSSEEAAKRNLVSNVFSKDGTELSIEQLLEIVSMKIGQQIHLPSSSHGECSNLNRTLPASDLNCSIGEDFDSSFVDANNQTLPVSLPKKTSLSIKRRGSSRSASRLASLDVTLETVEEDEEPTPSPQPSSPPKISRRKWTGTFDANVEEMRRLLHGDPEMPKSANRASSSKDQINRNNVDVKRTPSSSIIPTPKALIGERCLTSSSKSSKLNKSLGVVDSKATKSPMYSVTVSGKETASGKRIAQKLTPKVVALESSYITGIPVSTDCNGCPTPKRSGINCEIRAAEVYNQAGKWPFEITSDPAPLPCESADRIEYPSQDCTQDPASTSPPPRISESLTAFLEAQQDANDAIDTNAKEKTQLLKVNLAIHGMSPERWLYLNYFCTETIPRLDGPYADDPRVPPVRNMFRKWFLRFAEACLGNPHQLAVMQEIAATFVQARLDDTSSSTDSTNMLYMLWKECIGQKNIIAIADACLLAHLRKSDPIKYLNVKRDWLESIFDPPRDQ
Assay: filter binding; high affinity, similar to wild type; Kd only in figure; 50 nM RNA, 3.75 mM HEPES (stock pH 7.4), 150 mM NaCl, 0.9 mM beta-mercaptoethanol, 1.5% glycerol, 10 mM Tris HCl, 30 min, room temperature
Details: protein: recombinant; tags: N-terminal 6xHis (pET28a); label: 3' fluorescein; single strand

Binder: UUUUUUUUUUUUUUUUUUUUUUUUUUUUUU (ssRNA) [30U RNA (poly-U30)]
- binding result: binds
